Numbering of substitutions follows the chain as printed.
Experiments:
Test in all cases: cell-based or functional assay
[1] = molecular target: T1, factor VIIIa A1/A3C1C2 dimer, E287A (human, UniProt P00451 20-391; P00451 1709-2351)
T1 chain 1: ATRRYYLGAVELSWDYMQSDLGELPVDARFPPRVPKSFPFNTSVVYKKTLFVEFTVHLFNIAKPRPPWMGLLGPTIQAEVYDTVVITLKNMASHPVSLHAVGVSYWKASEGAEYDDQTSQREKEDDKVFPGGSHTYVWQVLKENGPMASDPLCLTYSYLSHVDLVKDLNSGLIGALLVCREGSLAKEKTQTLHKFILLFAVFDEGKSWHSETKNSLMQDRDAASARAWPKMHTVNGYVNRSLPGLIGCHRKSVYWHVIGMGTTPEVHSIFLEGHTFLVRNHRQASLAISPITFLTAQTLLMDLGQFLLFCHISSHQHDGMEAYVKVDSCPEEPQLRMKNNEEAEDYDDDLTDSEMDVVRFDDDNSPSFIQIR
T1 chain 2: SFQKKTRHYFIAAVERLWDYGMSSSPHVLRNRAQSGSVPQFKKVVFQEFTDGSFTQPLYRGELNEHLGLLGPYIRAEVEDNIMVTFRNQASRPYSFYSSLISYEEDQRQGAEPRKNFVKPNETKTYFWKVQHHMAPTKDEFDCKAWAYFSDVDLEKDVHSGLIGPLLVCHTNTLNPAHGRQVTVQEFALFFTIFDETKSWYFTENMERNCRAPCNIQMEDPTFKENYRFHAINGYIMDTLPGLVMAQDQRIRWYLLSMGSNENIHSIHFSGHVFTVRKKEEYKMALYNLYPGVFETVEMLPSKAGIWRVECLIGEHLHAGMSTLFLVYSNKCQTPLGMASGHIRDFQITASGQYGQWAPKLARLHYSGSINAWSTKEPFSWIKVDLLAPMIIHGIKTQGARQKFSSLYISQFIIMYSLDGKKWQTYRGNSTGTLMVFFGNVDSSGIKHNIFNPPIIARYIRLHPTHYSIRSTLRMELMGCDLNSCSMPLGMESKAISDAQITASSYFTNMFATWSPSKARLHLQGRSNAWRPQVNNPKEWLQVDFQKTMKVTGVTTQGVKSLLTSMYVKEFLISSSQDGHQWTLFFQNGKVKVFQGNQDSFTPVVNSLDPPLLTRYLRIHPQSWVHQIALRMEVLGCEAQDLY

[2] = molecular target: T2, factor VIIIa A1/A3C1C2 dimer, D302A (human, UniProt P00451 20-391; P00451 1709-2351)
T2 chain 1: T1 chain 1 with A287E, D302A
T2 chain 2: T1 chain 2

[3] = molecular target: T3, factor VIIIa A1/A3C1C2 dimer, S1791A (human, UniProt P00451 20-391; P00451 1709-2351)
T3 sequence 1: T1 chain 1 with A287E
T3 sequence 2: T1 chain 2 with S102A

[4] = molecular target: T4, factor VIIIa A1/A3C1C2 dimer, H317A (human, UniProt P00451 20-391; P00451 1709-2351)
T4 chain 1: T1 chain 1 with A287E, H317A
T4 chain 2: T1 chain 2

B1: factor VIIIa A2 subunit, wild type (other)
chain: SVAKKHPKTWVHYIAAEEEDWDYAPLVLAPDDRSYKSQYLNNGPQRIGRKYKKVRFMAYTDETFKTREAIQHESGILGPLLYGEVGDTLLIIFKNQASRPYNIYPHGITDVRPLYSRRLPKGVKHLKDFPILPGEIFKYKWTVTVEDGPTKSDPRCLTRYYSSFVNMERDLASGLIGPLLICYKESVDQRGNQIMSDKRNVILFSVFDENRSWYLTENIQRFLPNPAGVQLEDPEFQASNIMHSINGYVFDSLQLSVCLHEVAYWYILSIGAQTDFLSVFFSGYTFKHKMVYEDTLTLFPFSGETVFMSMENPGLWILGCHNSDFRNRGMTALLKVSSCDKNTGDYYEDSYEDISAYLLSKNNAIEPR
B1 was tested, and the “Factor VIIIa decay rate relative to wild type, FIXa (+)” value [1] was 0.78 relative to wild type, the “Factor VIIIa decay rate, FIXa (+)” value [1] was 0.0088 min⁻¹ and the “Factor VIIIa decay rate relative to wild type, FIXa (+)” value [2] was 0.43 relative to wild type. For the same binder, the “Factor VIIIa decay rate, FIXa (+)” value [2] was 0.0049 min⁻¹, the “Factor VIIIa decay rate relative to wild type, FIXa (+)” value [3] was 1.85 relative to wild type and the “Factor VIIIa decay rate, FIXa (+)” value [3] was 0.0208 min⁻¹. For the same binder, the “Factor VIIIa decay rate relative to wild type, FIXa (+)” value [4] was 1.28 relative to wild type and the “Factor VIIIa decay rate, FIXa (+)” value [4] was 0.0145 min⁻¹.
